Data published in publication PMC7069958, “Multi-level and lineage-specific interactomes of the Hox transcription factor Ubx contribute to its functional specificity”.

T1: V5-Tin (UniProt P22711)
T1 sequence: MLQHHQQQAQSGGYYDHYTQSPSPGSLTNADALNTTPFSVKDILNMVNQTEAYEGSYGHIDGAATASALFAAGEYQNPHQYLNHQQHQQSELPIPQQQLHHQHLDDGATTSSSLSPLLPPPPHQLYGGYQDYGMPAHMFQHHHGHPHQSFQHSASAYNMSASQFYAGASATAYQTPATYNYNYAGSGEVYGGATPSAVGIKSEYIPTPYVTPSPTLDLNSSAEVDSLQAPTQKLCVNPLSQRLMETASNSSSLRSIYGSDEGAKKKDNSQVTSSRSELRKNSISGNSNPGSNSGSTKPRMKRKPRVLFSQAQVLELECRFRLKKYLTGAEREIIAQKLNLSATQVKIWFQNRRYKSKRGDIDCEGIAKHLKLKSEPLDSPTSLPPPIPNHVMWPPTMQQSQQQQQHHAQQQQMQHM


Experiments:
V5-Tin = biological target: T1, V5-Tin; test: EMSA; conditions: 20 mM HEPES pH 7.9, 1.4 mM MgCl2, 1 mM ZnSO4, 40 mM KCl, 0.1 mM EDTA, 5% glycerol, 0.2 ug poly(dI-dC), 0.1 ug BSA, 10 mM DTT, 0.1% NP40, 30 ul, 20 min; gel 6% …
[1] = biological target: GST-Ubx^FL (full length) (Drosophila) (UniProt P83949); test: pull-down; GST or GST-Ubx fusion proteins in equal amounts with His-purified proteins; affinity buffer (20 mM HEPES, 10 uM ZnCl2, 0.1% Triton, 2 mM EDTA) with NaCl, 1 mM DTT, 0.1 mM PMSF; 2 h at 4 °C; western blot
Chain of GST-Ubx^FL (full length) (Drosophila) (P83949 whole entry, the tested form may be a part): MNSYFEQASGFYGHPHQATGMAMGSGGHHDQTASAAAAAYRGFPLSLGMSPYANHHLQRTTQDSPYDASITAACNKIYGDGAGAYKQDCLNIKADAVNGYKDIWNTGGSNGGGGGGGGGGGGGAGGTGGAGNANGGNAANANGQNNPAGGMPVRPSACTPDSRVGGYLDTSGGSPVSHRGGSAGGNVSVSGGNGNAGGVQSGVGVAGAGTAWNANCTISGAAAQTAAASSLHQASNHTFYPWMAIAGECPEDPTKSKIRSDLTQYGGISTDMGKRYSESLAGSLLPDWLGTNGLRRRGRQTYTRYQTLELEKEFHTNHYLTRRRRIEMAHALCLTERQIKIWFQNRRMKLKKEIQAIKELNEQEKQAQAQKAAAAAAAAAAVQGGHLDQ

| Molecule | binding (V5-Tin) | fold stronger than the Ubx-Exd interaction (signal in pull-down compared with input) [1] |
| --- | --- | --- |
| CAATCGCTGTAAATAAATAGGAGCCGCAGATCAAAGGCCTATCAATTAGCACCCATTTCGATTATGCTGCATGCTGCATATGCAGCACTTGCACTGCCTGCAATTCACACCCAATTAGTAATAAATTTGAATGCGCGCTGCAATTTGCCG (double strand) [dpp674 enhancer fragment F3 (150 bp)] | binds | – |
| V5-Tin, His-purified (natural protein) MLQHHQQQAQSGGYYDHYTQSPSPGSLTNADALNTTPFSVKDILNMVNQTEAYEGSYGHIDGAATASALFAAGEYQNPHQYLNHQQHQQSELPIPQQQLHHQHLDDGATTSSSLSPLLPPPPHQLYGGYQDYGMPAHMFQHHHGHPHQSFQHSASAYNMSASQFYAGASATAYQTPATYNYNYAGSGEVYGGATPSAVGIKSEYIPTPYVTPSPTLDLNSSAEVDSLQAPTQKLCVNPLSQRLMETASNSSSLRSIYGSDEGAKKKDNSQVTSSRSELRKNSISGNSNPGSNSGSTKPRMKRKPRVLFSQAQVLELECRFRLKKYLTGAEREIIAQKLNLSATQVKIWFQNRRYKSKRGDIDCEGIAKHLKLKSEPLDSPTSLPPPIPNHVMWPPTMQQSQQQQQHHAQQQQMQHM | – | > 10 fold |
